Patent US10513545B2, “Fusion polypeptide in which anti-inflammatory polypeptide and ferritin monomer fragment are bound and pharmaceutical composition for preventing and treating inflammatory diseases, containing same as active ingredient” (KYUNGPOOK NATIONAL UNIVERSITY INDUSTRY-ACADEMIC COOPERATION …, priority 2015, dated 2019)

T1: soluble EPCR (sEPCR) (Homo sapiens, UniProt Q9UNN8)
T1 construct: 96-well flat microtiter plates were coated with soluble EPCR
T1 sequence (Q9UNN8 18-210 limits assumed): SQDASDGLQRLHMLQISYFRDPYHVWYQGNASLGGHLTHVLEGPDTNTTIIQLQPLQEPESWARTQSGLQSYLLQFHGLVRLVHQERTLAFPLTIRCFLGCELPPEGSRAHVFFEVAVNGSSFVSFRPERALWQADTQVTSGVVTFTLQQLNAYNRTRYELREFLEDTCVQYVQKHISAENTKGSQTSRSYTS

T2: MMP-2 (Homo sapiens, UniProt P08253)
T2 sequence (P08253 110-660): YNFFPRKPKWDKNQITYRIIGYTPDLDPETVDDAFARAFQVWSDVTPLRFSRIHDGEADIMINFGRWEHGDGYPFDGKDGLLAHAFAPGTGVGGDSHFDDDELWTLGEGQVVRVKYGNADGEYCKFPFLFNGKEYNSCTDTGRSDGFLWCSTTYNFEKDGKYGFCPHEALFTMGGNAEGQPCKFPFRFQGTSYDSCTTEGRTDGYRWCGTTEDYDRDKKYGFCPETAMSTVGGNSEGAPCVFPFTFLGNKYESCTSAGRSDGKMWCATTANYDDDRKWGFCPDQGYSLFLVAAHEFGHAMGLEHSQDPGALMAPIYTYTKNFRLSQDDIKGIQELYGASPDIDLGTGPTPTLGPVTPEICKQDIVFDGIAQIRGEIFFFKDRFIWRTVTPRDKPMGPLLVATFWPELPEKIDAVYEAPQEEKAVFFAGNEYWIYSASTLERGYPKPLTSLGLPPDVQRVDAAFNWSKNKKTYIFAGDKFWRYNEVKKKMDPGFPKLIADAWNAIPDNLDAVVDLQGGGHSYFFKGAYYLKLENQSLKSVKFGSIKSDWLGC


What was measured:
soluble EPCR (sEPCR) = biological target: T1, soluble EPCR (sEPCR); test: solid-phase ELISA for binding affinity to soluble EPCR; details: FIG. 9, read-out: Kd(app) for the interaction with sEPCR
Method: 9. Enzyme-Linked Immunosorbent Assays (ELISA) for Evaluating EPCR (Endothelial Protein C Receptor) Binding Affinity
To evaluate the interaction of the wild-type PC, PC-Gla peptides, TFG, and TFMG with EPCR, 96-well flat microtiter plates were coated with soluble EPCR in 20 mM carbonate-bicarbonate buffer (pH 9.6) containing 0.02% sodium azide, overnight at 4° C. After the plates were washed three times in TBS buffer (0.1 M NaCl, 0.02 M Tris-HCl, pH 7.4) containing 0.05% Tween 20, the plates were incubated with wild-type PC, PC-Gla peptides, TFG, and TFMG (7-1000 nM) diluted in the buffer for 1 h. After the plates were rinsed again, they were incubated with a goat anti-protein C polyclonal antibody (1:1000) for 1 h. Then, the plates were washed and incubated with rabbit anti-goat IgG (KPL, MD, 1:1000) for 1 h. After washing, the plates were incubated with 2,2′-azino-di(3-ethylbenzthiazoline-6-sulfonate) (ABTS; KPL, Gaithersburg, Md.). Colorimetric analysis was performed by measuring absorbance values at 405 nm.

endothelial cells = test: in vivo binding to endothelial cells (intravenously injected mice, isolated mouse endothelial cells); details: mouse animal model, FIG. 12B
Text: The endothelial cells were isolated according to the manufacturer's (Dynal Biotec, Lake Success, N.Y.) instructions, using Dynabeads coupled to anti-CD31 antibody and the Dynal Magnetic holder. Briefly, for endothelial cell isolation, four to six mice (6-10 weeks old) were anesthetized, followed by exposure of the peritoneal cavity. Excised lungs and hearts were put into RPMI media, followed by removing other tissues from the heart and lungs, and then rinsing once in PBS. The lungs and heart were incubated with 1.0 mg/mL of collagenase A in a 50 mL tube for 1 h at around 37° C. Every 5 min during this incubation, the tube was gently agitated for a few seconds, and then the suspension was transferred into a new 50 mL tube by passing it through the 70 um tissue sieve (BD Falcon). The filtered cell suspension was centrifuged for 10 min at 1000 rpm. After removal of the supernatant, the cell pellet was washed once with cold PBS in a new 15-mL tube. […]
A direct cell-binding assay was performed on HUVECs and in vivo using fluorescence labeled-PC-Gla, TFG, and TFMG. […] The fluorescence value of the HUVECs or endothelial cells were measured with tightly bound PC-Gla, TFG, and TFMG, respectively. The concentrations of PC-Gla, TFG, and TFMG were measured by using the nanoparticle ratio of fluorescent dye per protein.

MMP-2 = biological target: T2, MMP-2; test: cleavage of nanocaged TFMG by activated MMP-2; format: biochemical; details: p-aminophenylmercuric acetate-activated MMP-2, FIG. 6-8
Method: To evaluate whether TFMG could be selectively cleaved by MMP2, TFMG was incubated with APMA-mediated activated MMP-2 in PBS at 37° C. for 3 h. The cleaved fragments of TFMG were detected by MALDI-ToF.

Molecule | Kd (soluble EPCR (sEPCR)) [nM] | in vivo binding to endothelial cells compared with PC-Gla (endothelial cells) | release of PC-Gla by linker cleavage with MMP-2 (MMP-2)
TFMG: as TFG with an MMP-2 cleavable linker (GPLGLAG) between ferritin fragment C-terminus and PC-Gla (apparently SEQ ID NO: 15) (protein, Fusion polypeptide (2)) MGGTTFLLRNASGHMSSQIRQNYSTDVEAAVNSLVNLYLQASYTYLSLGFYFDRDDVALEGVSHFFRELAEEKREGYERLLKMQNQRGGRIFLQDIKKPAEDEWGKTPDAMKAAMALEKKLNQALLDLHALGSARTDPHLCDFLETHFLDEEVKLIKKMGDHLTNLHRLGGGSEFVDGGGSGTSGPLGLAGANSFLEELRHSSLERECIEEICDFEEAKEIFQNVDDTLAFWSKHVLEHHHHHH | 307 | bound more strongly to, and stayed longer on, endothelial cells than PC-Gla did | continuously released PC-Gla
TFG: fusion polypeptide: TRAP at N-terminus and PC-Gla at C-terminus of short ferritin monomer fragment, forms nanocage (apparently SEQ ID NO: 14) (protein, Fusion polypeptide (1)) MGGTTFLLRNASGHMSSQIRQNYSTDVEAAVNSLVNLYLQASYTYLSLGFYFDRDDVALEGVSHFFRELAEEKREGYERLLKMQNQRGGRIFLQDIKKPAEDEWGKTPDAMKAAMALEKKLNQALLDLHALGSARTDPHLCDFLETHFLDEEVKLIKKMGDHLTNLHRLGGGSEFVDGGGSGTSANSFLEELRHSSLERECIEEICDFEEAKEIFQNVDDTLAFWSKHVLEHHHHHH |  | bound more strongly to, and stayed longer on, endothelial cells than PC-Gla did | 
